B1: TR4: Testicular Orphan Nuclear Receptor 4 (NR2C2), cDNA driver (protein, UniProt P49116 1-596, looked up)
Nuclear receptor subfamily 2 …: MTSPSPRIQIISTDSAVASPQRIQIVTDQQTGQKIQIVTAVDASGSPKQQFILTSPDGAGTGKVILASPETSSAKQLIFTTSDNLVPGRIQIVTDSASVERLLGKTDVQRPQVVEYCVVCGDKASGRHYGAVSCEGCKGFFKRSVRKNLTYSCRSNQDCIINKHHRNRCQFCRLKKCLEMGMKMESVQSERKPFDVQREKPSNCAASTEKIYIRKDLRSPLIATPTFVADKDGARQTGLLDPGMLVNIQQPLIREDGTVLLATDSKAETSQGALGTLANVVTSLANLSESLNNGDTSEIQPEDQSASEITRAFDTLAKALNTTDSSSSPSLADGIDTSGGGSIHVISRDQSTPIIEVEGPLLSDTHVTFKLTMPSPMPEYLNVHYICESASRLLFLSMHWARSIPAFQALGQDCNTSLVRACWNELFTLGLAQCAQVMSLSTILAAIVNHLQNSIQEDKLSGDRIKQVMEHIWKLQEFCNSMAKLDIDGYEYAYLKAIVLFSPDHPGLTSTSQIEKFQEKAQMELQDYVQKTYSEDTYRLARILVRLPALRLMSSNITEELFFTGLIGNVSIDSIIPYILKMETAEYNGQITGASL
B2: Erb: Estrogen Receptor β (NR3A2, ERb), cDNA driver (protein, UniProt Q92731 1-530, looked up)
Estrogen receptor beta: MDIKNSPSSLNSPSSYNCSQSILPLEHGSIYIPSSYVDSHHEYPAMTFYSPAVMNYSIPSNVTNLEGGPGRQTTSPNVLWPTPGHLSPLVVHRQLSHLYAEPQKSPWCEARSLEHTLPVNRETLKRKVSGNRCASPVTGPGSKRDAHFCAVCSDYASGYHYGVWSCEGCKAFFKRSIQGHNDYICPATNQCTIDKNRRKSCQACRLRKCYEVGMVKCGSRRERCGYRLVRRQRSADEQLHCAGKAKRSGGHAPRVRELLLDALSPEQLVLTLLEAEPPHVLISRPSAPFTEASMMMSLTKLADKELVHMISWAKKIPGFVELSLFDQVRLLESCWMEVLMMGLMWRSIDHPGKLIFAPDLVLDRDEGKCVEGILEIFDMLLATTSRFRELKLQHKEYLCVKAMILLNSSMYPLVTATQDADSSRKLAHLLNAVTDALVWVIAKSGISSQQQSMRLANLLMLLSHVRHASNKGMEHLLNMKCKNVVPVYDLLLEMLNAHVLRGCKSSITGSECSPAEDSKSKEGSQNPQSQ
B3: ERR2: Estrogen Related Receptor β (NR3B2, ERRb), cDNA driver (protein, UniProt O95718 1-433, looked up)
Steroid hormone receptor ERR2: MSSDDRHLGSSCGSFIKTEPSSPSSGIDALSHHSPSGSSDASGGFGLALGTHANGLDSPPMFAGAGLGGTPCRKSYEDCASGIMEDSAIKCEYMLNAIPKRLCLVCGDIASGYHYGVASCEACKAFFKRTIQGNIEYSCPATNECEITKRRRKSCQACRFMKCLKVGMLKEGVRLDRVRGGRQKYKRRLDSESSPYLSLQISPPAKKPLTKIVSYLLVAEPDKLYAMPPPGMPEGDIKALTTLCDLADRELVVIIGWAKHIPGFSSLSLGDQMSLLQSAWMEILILGIVYRSLPYDDKLVYAEDYIMDEEHSRLAGLLELYRAILQLVRRYKKLKVEKEEFVTLKALALANSDSMYIEDLEAVQKLQDLLHEALQDYELSQRHEEPWRTGKLLLTLPLLRQTAAKAVQHFYSVKLQGKVPMHKLFLEMLEAKV
B4: ERR3: Estrogen Related Receptor γ (NR3B3, ERRg), cDNA driver (protein, UniProt P62508 1-458, looked up)
Estrogen-related receptor …: MDSVELCLPESFSLHYEEELLCRMSNKDRHIDSSCSSFIKTEPSSPASLTDSVNHHSPGGSSDASGSYSSTMNGHQNGLDSPPLYPSAPILGGSGPVRKLYDDCSSTIVEDPQTKCEYMLNSMPKRLCLVCGDIASGYHYGVASCEACKAFFKRTIQGNIEYSCPATNECEITKRRRKSCQACRFMKCLKVGMLKEGVRLDRVRGGRQKYKRRIDAENSPYLNPQLVQPAKKPYNKIVSHLLVAEPEKIYAMPDPTVPDSDIKALTTLCDLADRELVVIIGWAKHIPGFSTLSLADQMSLLQSAWMEILILGVVYRSLSFEDELVYADDYIMDEDQSKLAGLLDLNNAILQLVKKYKSMKLEKEEFVTLKAIALANSDSMHIEDVEAVQKLQDVLHEALQDYEAGQHMEDPRRAGKMLMTLPLLRQTSTKAVQHFYNIKLEGKVPMHKLFLEMLEAKV
B5: CTF1: COUP-TF1 (NR2F1), cDNA driver (protein, UniProt P10589 1-423, looked up)
COUP transcription factor 1: MAMVVSSWRDPQDDVAGGNPGGPNPAAQAARGGGGGAGEQQQQAGSGAPHTPQTPGQPGAPATPGTAGDKGQGPPGSGQSQQHIECVVCGDKSSGKHYGQFTCEGCKSFFKRSVRRNLTYTCRANRNCPIDQHHRNQCQYCRLKKCLKVGMRREAVQRGRMPPTQPNPGQYALTNGDPLNGHCYLSGYISLLLRAEPYPTSRYGSQCMQPNNIMGIENICELAARLLFSAVEWARNIPFFPDLQITDQVSLLRLTWSELFVLNAAQCSMPLHVAPLLAAAGLHASPMSADRVVAFMDHIRIFQEQVEKLKALHVDSAEYSCLKAIVLFTSDACGLSDAAHIESLQEKSQCALEEYVRSQYPNQPSRFGKLLLRLPSLRTVSSSVIEQLFFVRLVGKTPIETLIRDMLLSGSSFNWPYMSIQCS
B6: CTF2: COUP-TF2 (NR2F2), cDNA driver (protein, UniProt P24468 1-414, looked up)
COUP transcription factor 2: MAMVVSTWRDPQDEVPGSQGSQASQAPPVPGPPPGAPHTPQTPGQGGPASTPAQTAAGGQGGPGGPGSDKQQQQQHIECVVCGDKSSGKHYGQFTCEGCKSFFKRSVRRNLSYTCRANRNCPIDQHHRNQCQYCRLKKCLKVGMRREAVQRGRMPPTQPTHGQFALTNGDPLNCHSYLSGYISLLLRAEPYPTSRFGSQCMQPNNIMGIENICELAARMLFSAVEWARNIPFFPDLQITDQVALLRLTWSELFVLNAAQCSMPLHVAPLLAAAGLHASPMSADRVVAFMDHIRIFQEQVEKLKALHVDSAEYSCLKAIVLFTSDACGLSDVAHVESLQEKSQCALEEYVRSQYPNQPTRFGKLLLRLPSLRTVSSSVIEQLFFVRLVGKTPIETLIRDMLLSGSSFNWPYMAIQ

Test system: mAgrp promoter
Assay: NHR-promoter luciferase screen, mAgrp promoter
Format: cell-based, mouse
Conditions: Table 6d; luciferase activity relative to control (control = 1.00)
Outline: (§1)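 CV-1 cells were co-transfected with 50 ng NHR (homodimer or NHR/RXR heterodimer), 100 ng promoter-luciferase construct and 50 ng LacZ. Luciferase was normalized to LacZ and to a no-NHR/no-ligand control.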

Going from B1 to B2, the “Results of assays of transcription factor (+/- ligand) with mAgrp” value (shortened to “Results of assays … with mAgrp”) falls from 2.06 to 0.98.

Compared with B3, B4 is higher in “Results of assays … with mAgrp” value: 1.64 for the first, 2.12 for the second.

First: B5
Second: B6
The “Results of assays … with mAgrp” value of the first is lower: 0.71 for the first, 1.08 for the second.

Same assay, conditions: mAgrp promoter-luciferase, NHR +/- ligand, control = 1.0

Going from B1 to B3, the “luciferase/LacZ, mAgrp (selected results)” value falls from 2.1 to 1.6.

Same assay, conditions: mAgrp promoter; HR component with or without ligand

Going from B1 to B2, the “Luc. act., normalized to lacZ” value falls from 81.8 to 39.0.

Compared with B3, B4 is higher in “Luc. act., normalized to lacZ” value: 65.0 for the first, 84.0 for the second.

Compared with B5, B6 is higher in “Luc. act., normalized to lacZ” value: 28.2 for the first, 42.7 for the second.

Same assay, conditions: mAgrp promoter; HR component with or without ligand; relative to control

Compared with B1, B2 is lower in “Normalized Luc. act., normalized to control” value: 2.1 for the first, 1.0 for the second.

First: B3
Second: B4
The “Normalized Luc. act., normalized to control” value of the first is lower: 1.6 for the first, 2.1 for the second.

Compared with B5, B6 is higher in “Normalized Luc. act., normalized to control” value: 0.7 for the first, 1.1 for the second.

Test system: mGhrelin promoter
Assay: NHR-promoter luciferase screen, mGhrelin promoter
Format: cell-based, mouse
Conditions: Table 8; mGhrelin
Outline: as §1

Going from B1 to B2, the “Luc. act., normalized to lacZ” value falls from 273.5 to 47.5.

Going from B3 to B4, the “Luc. act., normalized to lacZ” value falls from 365.8 to 145.9.

First: B5
Second: B6
The “Luc. act., normalized to lacZ” value of the first is lower: 113.8 for the first, 173.3 for the second.

Going from B1 to B2, the “Normalized Luc. act., normalized to control” value falls from 5.2 to 0.9.

Going from B3 to B4, the “Normalized Luc. act., normalized to control” value falls from 7.0 to 2.8.

Going from B5 to B6, the “Normalized Luc. act., normalized to control” value rises from 2.2 to 3.3.

Same assay, conditions: Table 6d; luciferase activity relative to control (control = 1.00)

Compared with B1, B2 is lower in “Results of assays of transcription factor (+/- ligand) with mGhrelin” value (from here on “Results of assays … with mGhrelin”): 5.23 for the first, 0.91 for the second.

Compared with B3, B4 is lower in “Results of assays … with mGhrelin” value: 7.00 for the first, 2.79 for the second.

Compared with B5, B6 is higher in “Results of assays … with mGhrelin” value: 2.18 for the first, 3.32 for the second.

Same assay, conditions: mGhrelin promoter-luciferase, NHR +/- ligand, control = 1.0

First: B1
Second: B3
The “luciferase/LacZ, mGhrelin (selected results)” value of the first is lower: 5.2 for the first, 7.0 for the second.

Test system: Bmal1 promoter
Assay: NHR-promoter luciferase screen, Bmal1 promoter
Format: cell-based, mouse
Conditions: Bmal1 promoter; HR component without or with ligand
Outline: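 Luciferase activity was measured 48 h after transfection, normalized to LacZ and then to a control lacking NHR or ligand. CV-1 cells carried 100 ng Bmal1 reporter, 50 ng NHR construct and 50 ng LacZ.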

Going from B1 to B2, the “Luc. act., normalized to lacZ” value falls from 22.5 to 17.0.

First: B3
Second: B4
The “Luc. act., normalized to lacZ” value of the first is higher: 10.6 for the first, 9.5 for the second.

Compared with B5, B6 is higher in “Luc. act., normalized to lacZ” value: 26.1 for the first, 29.5 for the second.

First: B1
Second: B2
The “Normalized Luc. act., normalized to control” value of the first is higher: 1.4 for the first, 1.1 for the second.

Going from B3 to B4, the “Normalized Luc. act., normalized to control” value falls from 0.7 to 0.6.

First: B5
Second: B6
The “Normalized Luc. act., normalized to control” value of the first is lower: 1.7 for the first, 1.9 for the second.

Same assay, conditions: transcription factor +/- ligand; control = 1.00

Going from B1 to B2, the “mBmal1 promoter reporter activity” value falls from 1.44 to 1.09.

Going from B3 to B4, the “mBmal1 promoter reporter activity” value falls from 0.68 to 0.61.

Going from B5 to B6, the “mBmal1 promoter reporter activity” value rises from 1.67 to 1.89.

Test system: mUCP1 promoter
Assay: NHR-promoter luciferase screen, mUCP1 promoter
Format: cell-based, mouse
Conditions: mUCP1 promoter reporter; co-transfected HR, with or without its ligand
Outline: as §1

Going from B1 to B2, the “Luc. act., normalized to lacZ” value falls from 26.4 to 3.3.

Compared with B3, B4 is higher in “Luc. act., normalized to lacZ” value: 13.1 for the first, 26.5 for the second.

First: B5
Second: B6
The “Luc. act., normalized to lacZ” value of the first is lower: 1.8 for the first, 1.9 for the second.

Same assay, conditions: mUCP1 promoter reporter; co-transfected HR, with or without its ligand; relative to control

Compared with B1, B2 is lower in “Normalized Luc. act., normalized to control” value: 5.9 for the first, 0.8 for the second.

Going from B3 to B4, the “Normalized Luc. act., normalized to control” value rises from 3.0 to 6.0.

B5 and B6 are the same in “Normalized Luc. act., normalized to control” value: 0.4 for the first, 0.4 for the second.

Same assay, conditions: mUCP! promoter-luciferase, CV-1 cells, NHR +/- ligand, control = 1.00

Compared with B1, B2 is lower in “luciferase activity normalized to lacZ activity and to a control, mUCP!” value (“luciferase activity normalized” below): 5.94 for the first, 0.75 for the second.

Going from B3 to B4, the “luciferase activity normalized” value rises from 2.95 to 5.98.

First: B5
Second: B6
The “luciferase activity normalized” value of the first is lower: 0.41 for the first, 0.43 for the second.

Test system: hIRF7 promoter
Assay: NHR-promoter luciferase screen, hIRF7 promoter
Format: cell-based, human
Conditions: IRF7 promoter reporter; HR without or with its ligand; relative to control
Outline: as §1

Compared with B1, B2 is lower in “Normalized Luc. act., normalized to control” value: 1.9 for the first, 1.4 for the second.

Compared with B3, B4 is lower in “Normalized Luc. act., normalized to control” value: 2.3 for the first, 2.1 for the second.

Going from B5 to B6, the “Normalized Luc. act., normalized to control” value rises from 0.9 to 1.0.

Same assay, conditions: IRF7 promoter reporter; hormone receptor (HR) without or with its ligand

Compared with B1, B2 is lower in “Luc. act., normalized to lacZ” value: 48.8 for the first, 37.5 for the second.

Compared with B3, B4 is lower in “Luc. act., normalized to lacZ” value: 60.5 for the first, 55.2 for the second.

First: B5
Second: B6
The “Luc. act., normalized to lacZ” value of the first is lower: 24.8 for the first, 25.6 for the second.

Same assay, conditions: transcription factor +/- ligand; control = 1.00

First: B1
Second: B2
The “hIRF7 promoter reporter activity” value of the first is higher: 1.85 for the first, 1.42 for the second.

Going from B3 to B4, the “hIRF7 promoter reporter activity” value falls from 2.30 to 2.10.

Going from B5 to B6, the “hIRF7 promoter reporter activity” value rises from 0.94 to 0.97.

From US20110263454A1, “Methods of Identifying Functional Characteristics of Promoters, Transcription Modifying Proteins and Transcription Modulating Agents” (Salk Institute for Biological Studies, priority 2008, published 2011)
